Experimental data taken from patent US20120082661A1 (Biogen, published 2012).

B1: chA7D12.2 (antibody, human IgG1, kappa, V domains shown)
VH: QIQLVQSGPDLKKPGETVKLSCKASGYTFTNFGMNWVKQAPGKGFKWMAWINTYTGESYFADDFKGRFAFSVETSATTAYLQINNLKTEDTATYFCARGEIYYGYDGGFAYWGQGTLVTVSA
VL: DVVMTQSHRFMSTSVGDRVSITCRASQDVNTAVSWYQQKPGQSPKLLIFSASYRYTGVPDRFTGSGSGADFTLTISSVQAEDLAVYYCQQHYSTPWTFGGGTKLDIKR
B2: chC12A3.2 (antibody, human IgG1, kappa, V domains shown)
VH: QIQLVQSGPELKKPGETVKISCKASGYTFRHYSMNWVKQAPGKGLKWMGRINTESGVPIYADDFKGRFAFSVETSASTAYLVINNLKDEDTASYFCSNDYLYSLDFWGQGTTLTVSS
VL: DIVLTQSPPSLAMSLGKRATISCRASESVTILGSHLIYWYQQKPGQPPTLLIQLASNVQTGVPARFSGSGSRTDFTLTIDPVEEDDVAVYYCLQSRTIPRTFGGGTKLEIKR
B3: chC13F12.1 (antibody, human IgG1, kappa, V domains shown)
VH: QIQLVQSGPELKKPGETVKISCKASGYTFTHYSMNWVKQAPGKGLKWMGRINTETGEPLYADDFKGRFAFSLETSASTAYLVINNLKNEDTATFFCSNDYLYSCDYWGQGTTLTVSS
VL: DIVLTQSPPSLAMSLGKRATISCRASESVTILGSHLIYWYQQKPGQPPTLLIQLASNVQTGVPARFSGSGSRTDFTLTIDPVEEDDVAVYYCLQSRTIPRTFGGGTKLEIKR
B4: chC11D5.3 (antibody, human IgG1, kappa, V domains shown)
VH: QIQLVQSGPELKKPGETVKISCKASGYTFTDYSINWVKRAPGKGLKWMGWINTETREPAYAYDFRGRFAFSLETSASTAYLQINNLKYEDTATYFCALDYSYAMDYWGQGTTLTVSS
VL: DIVLTQSPPSLAMSLGKRATISCRASESVTILGSHLIHWYQQKPGQPPTLLIQLASNVQTGVPARFSGSGSRTDFTLTIDPVEEDDVAVYYCLQSRTIPRTFGGGTKLEIKR

Experiments:
[1] = target: T1, human BCMA (B cell maturation antigen) (human, UniProt Q02223 1-184); assay: cell-based or functional assay
T1 chain: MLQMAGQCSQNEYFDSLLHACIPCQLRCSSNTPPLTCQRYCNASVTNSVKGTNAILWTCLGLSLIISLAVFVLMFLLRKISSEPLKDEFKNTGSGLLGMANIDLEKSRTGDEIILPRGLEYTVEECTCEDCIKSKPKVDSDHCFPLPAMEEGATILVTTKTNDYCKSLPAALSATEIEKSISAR

[2] = target: T1, human BCMA (B cell maturation antigen); assay: cell-based or functional assay

Row | Binder | % Killing at 1 nM (ADCC of U266 cells, PBMC effectors, LDH release) [1] [%] | % Killing at 1 nM (ADCC of JJN-3 cells, PBMC effectors, LDH release) [2] [%]
1 | B1 | 10 | 20
2 | B2 | 32 | 5
3 | B3 | 20 | 3
4 | B4 | 18 | 
